According to patent US20240101635A1 (AKSTON BIOSCIENCES, published 2024):
Substitutions are numbered along the chain they refer to. In names and notes the source's numbering stands. Like-named read-outs stand apart in the source and are kept apart here.

B1: insulin-Fc fusion protein of SEQ ID NO: 112 (Fc fusion)
chain: FVNQHLCGSDLVEALALVCGERGFFYTDPTGGGPRRGIVEQCCHSICSLYQLENYCNGGGGSGGGGGEGPKCPVPEIPGAPSVFIFPPKPKDTLSISRTPEVTCLVVDLGPDDSNVQITWFVDNTEMHTAKTRPREEQFNSTYRVVSVLPILHQDWLKGKEFKCKVNSKSLPSAMERTISKAKGQPHEPQVYVLPPTQEELSENKVSVTCLIKGFHPPDIAVEWEITGQPEPENNYQTTPPQLDSDGTYFLYSRLSVDRSHWQRGNTYTCSVSHEALHSHHTQKSLTQSPG
notes: Feline IgG2 Fc, B16A insulin polypeptide; homodimer
B2: insulin-Fc fusion protein of SEQ ID NO: 110 (Fc fusion)
chain: B1 chain with S62A
notes: homodimer
B3: insulin-Fc fusion protein of SEQ ID NO: 106 (Fc fusion)
chain: B1 chain with A16Y
notes: homodimer
B4: insulin-Fc fusion protein of SEQ ID NO: 38 (Fc fusion)
chain: FVNQHLCGSHLVEALELVCGERGFHYGGGGGGSGGGGGIVEQCCTSTCSLDQLENYCGGGGGQGGGGQGGGGQGGGGGDCPKCPPPEMLGGPSIFIFPPKPKDTLSISRTPEVTCLVVDLGPDDSDVQITWFVDNTQVYTAKTSPREEQFNSTYRVVSVLPILHQDWLKGKEFKCKVNSKSLPSPIERTISKDKGQPHEPQVYVLPPAQEELSRNKVSVTCLIEGFYPSDIAVEWEITGQPEPENNYRTTPPQLDSDGTYFLYSRLSVDRSRWQRGNTYTCSVSHEALHSHHTQKSLTQSPG
notes: homodimer
B5: insulin-Fc fusion protein of SEQ ID NO: 124 (Fc fusion)
chain: B4 chain with N151S
notes: homodimer
B6: insulin-Fc fusion protein of SEQ ID NO: 40 (Fc fusion)
chain: B4 chain with E16A, N151S
notes: homodimer
B7: insulin-Fc fusion protein of SEQ ID NO: 122 (Fc fusion)
chain: FVNQHLCGSHLVEALELVCGERGFHYGGGGGGSGGGGGIVEQCCTSTCSLDQLENYCGGGGGQGGGGQGGGGQGGGGGGEGPKCPVPEIPGAPSVFIFPPKPKDTLSISRTPEVTCLVVDLGPDDSNVQITWFVDNTEMHTAKTRPREEQFNSTYRVVSVLPILHQDWLKGKEFKCKVNSKSLPSAMERTISKAKGQPHEPQVYVLPPTQEELSENKVSVTCLIKGFHPPDIAVEWEITGQPEPENNYQTTPPQLDSDGTYFLYSRLSVDRSHWQRGNTYTCSVSHEALHSHHTQKSLTQSPG
notes: homodimer
B8: insulin-Fc fusion protein of SEQ ID NO: 108 (Fc fusion)
chain: FVNQHLCGSDLVEALALVCGERGFFYTDPTGGGPRRGIVEQCCHSICSLYQLENYCNGGGGSGGGGDCPKCPPPEMLGGPSIFIFPPKPKDTLSISRTPEVTCLVVDLGPDDSDVQITWFVDNTQVYTAKTSPREEQFNSTYRVVSVLPILHQDWLKGKEFKCKVNSKSLPSPIERTISKDKGQPHEPQVYVLPPAQEELSRNKVSVTCLIEGFYPSDIAVEWEITGQPEPENNYRTTPPQLDSDGTYFLYSRLSVDRSRWQRGNTYTCSVSHEALHSHHTQKSLTQSPG
notes: about 49% homodimer
B9: insulin-Fc fusion protein of SEQ ID NO: 60 (Fc fusion)
chain: FVNQHLCGSDLVEALALVCGERGFFYTDPTGGGPRRGIVEQCCHSICSLYQLENYCNGGGGAGGGGDCPKCPAPEMLGGPSVFIFPPKPKDTLLIARTPEVTCVVVDLDPEDPEVQISWFVDGKQMQTAKTQPREEQFSGTYRVVSVLPIGHQDWLKGKQFTCKVNNKALPSPIERTISKARGQAHQPSVYVLPPSREELSKNTVSLTCLIKDFFPPDIDVEWQSNGQQEPESKYRTTPPQLDEDGSYFLYSKLSVDKSRWQRGDTFICAVMHEALHNHYTQESLSHSPG
notes: homodimer; also called cNg-S; cNg-NB139-S
B10: insulin-Fc fusion protein of SEQ ID NO: 62 (Fc fusion)
chain: B9 chain with S139D
notes: homodimer; also called cNg-D; cNg-NB139-D

Legend:
human insulin receptor [1] = target: T1, human insulin receptor (human, UniProt P06213 28-1382); experiment: competition with biotinylated RHI on IM-9 cells, flow cytometry, 4 C
T1 construct: whole, on cells; Endogenous receptor on IM-9 cells; also called IR
Experimental: (§1) 40 μL of an IM-9 cell suspension (8×10⁶ cells/mL) was then added to each well by multichannel pipette, mixed again gently and incubated on ice for 30 min to allow competitive binding on the insulin receptor on IM-9 cells. Cells were then washed twice with 275 μL of ice-cold FACS wash buffer (HBSS/2 mM EDTA/0.1% Na-azide+0.5% horse serum) by centrifuging the V-bottom plate at 3000 rpm for 3 min and aspirating the supernatant. Cells were then resuspended in 40 μL of FACS staining medium containing 1:100 diluted Streptavidin-PE (Life Technologies) for 20 min on ice. Cells were then washed once with 275 μL of ice-cold FACS buffer and finally fixed with 3% paraformaldehyde for 10 min at room temp. Cells were then washed once with 275 μL of ice-cold FACS buffer and resuspended in 250 μl of FACS buffer for analysis.
(§2) The V-bottom plates containing cells were then analyzed on a Guava 8-HT flow cytometer (Millipore). Biotinylated-RHI binding to insulin receptor was quantitated by the median fluorescence intensity (MFI) of the cells on the FACS FL-2 channel for each concentration of the test compound. Control wells were labeled only with biotinylated-RHI and were used to calculate the percent (%) inhibition resulting from each test compound concentration. The % inhibition by test compounds of biotinylated-RHI binding on IM-9 cells was plotted against log concentrations of the test compound, and the resulting IC50 values were calculated using GraphPad Prism (GraphPad Software, La Jolla, CA) for the test compounds. Lower IC50 values of the test compound therefore indicate greater levels of biotinylated-RHI inhibition at lower concentrations indicating stronger binding of the insulin-Fc fusion protein to the insulin receptor. A control compound, such as unlabeled recombinant human insulin (RHI) was also used as an internal standard to generate an RHI IC50 against which a given compound IC50 could be ratioed (IC50(compound)/IC50(RHI)). Lower IC50 ratios have more similar binding to RHI (stronger binding to insulin receptor), while higher IC50 ratios have weaker binding to the insulin receptor relative to RHI.

human insulin receptor [2] = target: T1, human insulin receptor; experiment: as above; remark: listed apart in the source
Experimental: as §1, §2

[3] = target: T2, biotinylated recombinant human Fc(gamma) receptor I (human, UniProt P12314 16-288, biotinylated (site not stated)); experiment: ELISA, fusion protein coated, biotinylated rhFc(gamma)RI in solution, pH 7.4
T2 construct: Bought reagent, used as surrogate for canine/feline Fc(gamma)RI; also called rhFc(gamma) receptor I; Fc(gamma)RI
Experimental: (§3) The binding of insulin-Fc fusion proteins to the Fc(gamma) receptor I at pH 7.4 was conducted using an ELISA assay as follows. Since neither canine nor feline Fc(gamma) receptor I was not commercially available, human Fc(gamma) receptor I (i.e., rhFc(gamma) receptor I) was used as a surrogate mammalian receptor. Insulin-Fc compounds were diluted to 10 μg/mL in sodium bicarbonate buffer at pH 9.6 and coated on Maxisorp (Nunc) microtiter plates overnight at 4° C., after which the microplate strips were washed 5 times with PBST (PBS/0.05% Tween-20) buffer and blocked with Superblock blocking reagent (ThermoFisher). Serial dilutions of biotinylated rhFc(gamma) receptor I (recombinant human Fc(gamma)R-I; R&D Systems) were prepared in PBST/10% Superblock buffer from 6000 ng/mL to 8.2 ng/mL and loaded at 100 μL/well onto the microplate strips coated with insulin-Fc fusion protein. The microtiter plate was incubated for 1 hour at room temperature after which the microplate strips were washed 5 times with PBST and then loaded with 100 μL/well of streptavidin-HRP diluted 1:10000 in PBST/10% Superblock buffer. After incubating for 45 min, the microplate strips were washed again 5 times with PBST. TMB was added to reveal the bound Fc(gamma) receptor I proteins and stopped with ELISA stop reagent (Boston Bioproducts). The plate was read in an ELISA plate reader at 450 nm, and the OD values (proportional to the binding of rhFc(gamma) receptor I to insulin-Fc protein) were plotted against log concentrations of rhFc(gamma) receptor I added to each well to generate binding curves using GraphPad Prism software.
The insulin-Fc fusion protein of SEQ ID NO: 40 was synthesized in HEK293 cells according to the procedure of Example 1 and purified using a Protein A column according to Example 3. The structure of the insulin-Fc fusion protein was confirmed according to Example 4 by non-reducing and reducing CE-SDS, and the sequence was further identified by LC-MS with glycan removal according to Example 5. The protein yield was 174 mg/L at this stage. The % homodimer for the sequence was measured by size-exclusion chromatography according to Example 6 and was determined to be 98.9% resulting in a homodimer titer of 172 mg/L which meets the manufacturing design criteria.

biotinylated canine FcRn = biotinylated canine FcRn (canine, UniProt A0A8I3PFR8 25-347, biotinylated (site not stated)); experiment: ELISA pH 5.5, fusion protein coated, biotinylated canine FcRn titrated
Experimental: Insulin-Fc fusion proteins comprising Fc fragments of canine or feline origin were diluted to 10 μg/ml in sodium bicarbonate pH 9.6 buffer and coated in duplicate on Maxisorb ELISA plate strips for 1-2 hours at RT. The strips were then washed 4 times with PBST (PBS/0.1% Tween-20) buffer and blocked with Superblock blocking reagent (ThermoFisher). Strips for FcRn binding were then washed again twice with pH 5.5 MES/NaCl/Tween (50 mM MES/l50 mM NaCl/0.1% Tween-20) buffer before addition of the FcRn reagent (biotinylated canine FcRn; Immunitrack). […] Serial dilutions (1:3× dilutions) of biotinylated FcRn reagent were prepared in pH 5.5 MES/NaCl/Tween/10% Superblock buffer at concentrations from 1000 ng/ml to 0.45 ng/ml and loaded at 100 μL/well using a multichannel pipettor onto the strips coated with the insulin-Fc fusion protein compounds. The assay plate was then incubated for 1 hour at room temperature. FcRn binding strips were washed 4 times with pH 5.5 MES/NaCl/Tween buffer and then loaded with 100 μl/well […] diluted 1:10000 in pH 5.5 MES/NaCl/10% Superblock buffer. After incubating for 45 minutes, strips were washed again 4 times with pH 5.5 MES/NaCl/Tween buffer. TMB was finally added to reveal the bound biotinylated-canine FcRn reagent, and the color development was stopped with the ELISA stop reagent. The plate was read in an ELISA plate reader at a wavelength of 450 nm. The OD values (proportional to the binding of canine-FcRn to the insulin-Fc fusion protein test compounds) were plotted against log concentrations of FcRn added to each well to generate binding curves using GraphPad Prism software. EC50 values for each binding curve were calculated to compare between different compounds.

human insulin receptor [4] = target: T1, human insulin receptor; experiment: competition with biotinylated RHI on IM-9 cells, flow cytometry, 4 C; remark: listed apart in the source
[5] = target: T2, biotinylated recombinant human …; experiment: ELISA, fusion protein coated, biotinylated rhFc(gamma)RI in solution, pH 7.4; remark: listed apart in the source
Experimental: as §3
Low Fc(gamma) receptor binding is most likely to correlate with minimum immunogenicity.

Chain of biotinylated canine FcRn (A0A8I3PFR8 entry or part of it): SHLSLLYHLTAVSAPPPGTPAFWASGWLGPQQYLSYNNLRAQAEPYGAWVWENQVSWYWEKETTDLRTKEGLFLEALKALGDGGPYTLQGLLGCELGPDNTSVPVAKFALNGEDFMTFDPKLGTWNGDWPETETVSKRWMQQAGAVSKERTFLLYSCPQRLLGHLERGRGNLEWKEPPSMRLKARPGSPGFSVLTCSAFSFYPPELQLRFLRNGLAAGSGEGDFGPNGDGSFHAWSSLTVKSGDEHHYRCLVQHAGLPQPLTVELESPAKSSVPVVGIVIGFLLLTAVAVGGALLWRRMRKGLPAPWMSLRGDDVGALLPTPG
T1 sequence (P06213 28-1382): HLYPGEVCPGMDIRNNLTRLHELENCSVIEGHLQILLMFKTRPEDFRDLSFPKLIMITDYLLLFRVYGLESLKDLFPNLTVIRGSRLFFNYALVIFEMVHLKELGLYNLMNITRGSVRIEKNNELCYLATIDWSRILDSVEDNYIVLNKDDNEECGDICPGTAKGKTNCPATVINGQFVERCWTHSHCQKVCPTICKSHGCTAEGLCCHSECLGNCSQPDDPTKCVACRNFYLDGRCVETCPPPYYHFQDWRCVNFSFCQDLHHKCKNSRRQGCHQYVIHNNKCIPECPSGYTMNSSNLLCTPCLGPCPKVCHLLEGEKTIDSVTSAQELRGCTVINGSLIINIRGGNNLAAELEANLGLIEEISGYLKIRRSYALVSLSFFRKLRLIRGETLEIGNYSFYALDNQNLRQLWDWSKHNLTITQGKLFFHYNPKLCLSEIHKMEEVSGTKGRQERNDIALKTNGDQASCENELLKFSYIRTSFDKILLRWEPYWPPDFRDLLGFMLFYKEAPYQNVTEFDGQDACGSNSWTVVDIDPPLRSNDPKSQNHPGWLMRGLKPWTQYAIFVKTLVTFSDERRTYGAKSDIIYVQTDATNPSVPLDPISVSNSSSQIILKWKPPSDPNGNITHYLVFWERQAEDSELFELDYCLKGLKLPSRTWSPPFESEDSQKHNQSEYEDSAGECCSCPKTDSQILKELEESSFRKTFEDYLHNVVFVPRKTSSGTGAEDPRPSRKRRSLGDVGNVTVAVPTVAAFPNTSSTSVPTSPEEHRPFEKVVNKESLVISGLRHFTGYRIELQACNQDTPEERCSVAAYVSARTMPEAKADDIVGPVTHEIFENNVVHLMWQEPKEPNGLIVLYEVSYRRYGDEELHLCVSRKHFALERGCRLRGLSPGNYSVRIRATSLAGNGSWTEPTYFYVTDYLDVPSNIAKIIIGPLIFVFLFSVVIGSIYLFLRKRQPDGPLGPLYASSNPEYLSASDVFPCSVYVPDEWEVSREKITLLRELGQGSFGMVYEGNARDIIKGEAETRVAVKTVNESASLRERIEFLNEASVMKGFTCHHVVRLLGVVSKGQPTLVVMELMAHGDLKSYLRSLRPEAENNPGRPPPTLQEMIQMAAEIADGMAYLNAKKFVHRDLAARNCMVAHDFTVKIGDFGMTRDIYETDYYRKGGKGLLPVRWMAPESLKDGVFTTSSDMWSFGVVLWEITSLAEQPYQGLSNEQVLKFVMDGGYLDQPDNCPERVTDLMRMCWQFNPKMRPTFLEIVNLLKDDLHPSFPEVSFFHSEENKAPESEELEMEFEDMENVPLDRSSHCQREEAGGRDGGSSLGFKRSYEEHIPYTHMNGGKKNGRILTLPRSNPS
T2 sequence (P12314 16-288 limits assumed): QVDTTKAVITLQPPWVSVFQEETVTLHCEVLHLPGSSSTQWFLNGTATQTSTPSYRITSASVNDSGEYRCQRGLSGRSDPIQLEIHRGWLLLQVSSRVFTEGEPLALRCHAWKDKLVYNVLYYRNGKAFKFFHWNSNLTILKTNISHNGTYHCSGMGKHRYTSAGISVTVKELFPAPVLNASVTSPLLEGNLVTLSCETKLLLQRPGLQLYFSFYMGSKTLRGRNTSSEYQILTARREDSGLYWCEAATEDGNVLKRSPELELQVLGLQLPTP

| Binder | IC50 (human insulin receptor [1]) [nM] | IC50 (human insulin receptor [2]) [nM] | EC50 (biotinylated canine FcRn) [µg/mL] | also measured |
| --- | --- | --- | --- | --- |
| B1 | 53 | 53 |  |  |
| B2 | 41 |  |  |  |
| B3 | 22 | 22 |  |  |
| B4 |  |  | 1.55 | binding result [3]: binds; IC50 (human insulin receptor [4]): 2.4 µM |
| B5 |  |  | 6.92 |  |
| B6 |  |  | 8.16 | fold less Fc(gamma) receptor activity than SEQ ID NO: 38 [3]: ~4 fold less; IC50 (human insulin receptor [4]): 4.63 µM |
| B7 |  | 2540 | 3.11 |  |
| B8 | 62 | 62 |  |  |
| B9 |  |  |  | fold lower Fc(gamma)RI binding than SEQ ID NO: 52 [3]: 4 fold lower; Ratio to SEQ ID NO: 52 [5]: 0.24 ratio |
| B10 |  |  |  | fold of Fc(gamma) receptor binding activity against SEQ ID NO: 60 and SEQ ID NO: 64 [3]: ~2 fold; Ratio to SEQ ID NO: 52 [5]: 0.44 ratio |
